Legend:
EWS-FLI1 [1] = target: T1, EWS-FLI1 (UniProt F1JVV7); assay: competition; 30 nM EWS-FLI1, competes with 32P HDV RNA (N1?); EMSA: 25 mM HEPES pH 7.4, 80 mM NaCl, 2 mM MgCl2, 2 mM DTT, Superase In, 5 pmol 32P-RNA, 10 min room temperature, 6% native PAGE 0.5x TBE; AFM: 25 mM HEPES pH 7.4, 2 mM MgCl2, 1 mM TCEP, 25 C, 1 min; conditions: protein: recombinant; blunt
T1 chain: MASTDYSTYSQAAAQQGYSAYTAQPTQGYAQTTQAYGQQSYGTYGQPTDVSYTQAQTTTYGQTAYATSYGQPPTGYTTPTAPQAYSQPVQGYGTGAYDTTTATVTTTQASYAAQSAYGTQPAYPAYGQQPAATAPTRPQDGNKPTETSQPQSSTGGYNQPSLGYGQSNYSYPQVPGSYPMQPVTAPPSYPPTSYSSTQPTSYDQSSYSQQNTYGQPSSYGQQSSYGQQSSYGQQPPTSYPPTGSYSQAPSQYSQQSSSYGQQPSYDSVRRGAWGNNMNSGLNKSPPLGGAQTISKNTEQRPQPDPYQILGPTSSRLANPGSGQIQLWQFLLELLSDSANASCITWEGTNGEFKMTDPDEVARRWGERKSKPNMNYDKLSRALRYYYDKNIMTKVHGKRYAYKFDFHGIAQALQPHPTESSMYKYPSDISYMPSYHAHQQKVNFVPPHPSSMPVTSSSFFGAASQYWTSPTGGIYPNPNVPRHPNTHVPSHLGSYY

EWS-FLI1 [2] = target: T1, EWS-FLI1; assay: as above; conditions: protein: recombinant; blunt

| Binder | binding signal (EWS-FLI1 [1]) | binding result (EWS-FLI1 [2]) |
| --- | --- | --- |
| mut ets-DNA (GGAA to GCTA) (dsDNA) DNA 1: ATGTAGACCGCTAGTAACTA DNA 2: TAGTTACTAGCGGTCTACAT | 30 % of wild-type efficiency at displacing RNA |  |
| wt ets-DNA (dsDNA) DNA 1: ATGTAGACCGGAAGTAACTA DNA 2: TAGTTACTTCCGGTCTACAT |  | binds |
